# Laboratory results: IntAct's records for PubMed 29039417
# B1: BBSome complex member BBS2 (Homo sapiens), Q9BXC9 (parent)
# chain: MLLPVFTLKLRHKISPRMVAIGRYDGTHPCLAAATQTGKVFIHNPHTRNQHVSASRVFQSPLESDVSLLSINQAVSCLTAGVLNPELGYDALLVGTQTNLLAYDVYNNSDLFYREVADGANAIVLGTLGDISSPLAIIGGNCALQGFNHEGSDLFWTVTGDNVNSLALCDFDGDGKKELLVGSEDFDIRVFKEDEIVAEMTETEIVTSLCPMYGSRFGYALSNGTVGVYDKTSRYWRIKSKNHAMSIHAFDLNSDGVNELITGWSNGKVDARSDRTGEVIFKDNFSSAIAGVVEGDYRMDGHIQLICCSVDGEIRGYLPGTAEMRGNLMDTSAEQDLIRELSQKKQNLLLELRNYEENAKAELASPLNEADGHRGIIPANTRLHTTLSVSLGNETQTAHTELRISTSNDTIIRAVLIFAEGIFTGESHVVHPSIHNLSSSICIPIVPPKDVPVDLHLKAFVGYRSSTQFHVFESTRQLPRFSMYALTSLDPASEPISYVNFTIAERAQRVVVWLGQNFLLPEDTHIQNAPFQVCFTSLRNGGHLHIKIKLSGEITINTDDIDLAGDIIQSMASFFAIEDLQVEADFPVYFEELRKVLVKVDEYHSVHQKLSADMADHSNLIRSLLVGAEDARLMRDMKTMKSRYMELYDLNRDLLNGYKIRCNNHTELLGNLKAVNQAIQRAGRLRVGKPKNQVITACRDAIRSNNINTLFKIMRVGTASS
# partner: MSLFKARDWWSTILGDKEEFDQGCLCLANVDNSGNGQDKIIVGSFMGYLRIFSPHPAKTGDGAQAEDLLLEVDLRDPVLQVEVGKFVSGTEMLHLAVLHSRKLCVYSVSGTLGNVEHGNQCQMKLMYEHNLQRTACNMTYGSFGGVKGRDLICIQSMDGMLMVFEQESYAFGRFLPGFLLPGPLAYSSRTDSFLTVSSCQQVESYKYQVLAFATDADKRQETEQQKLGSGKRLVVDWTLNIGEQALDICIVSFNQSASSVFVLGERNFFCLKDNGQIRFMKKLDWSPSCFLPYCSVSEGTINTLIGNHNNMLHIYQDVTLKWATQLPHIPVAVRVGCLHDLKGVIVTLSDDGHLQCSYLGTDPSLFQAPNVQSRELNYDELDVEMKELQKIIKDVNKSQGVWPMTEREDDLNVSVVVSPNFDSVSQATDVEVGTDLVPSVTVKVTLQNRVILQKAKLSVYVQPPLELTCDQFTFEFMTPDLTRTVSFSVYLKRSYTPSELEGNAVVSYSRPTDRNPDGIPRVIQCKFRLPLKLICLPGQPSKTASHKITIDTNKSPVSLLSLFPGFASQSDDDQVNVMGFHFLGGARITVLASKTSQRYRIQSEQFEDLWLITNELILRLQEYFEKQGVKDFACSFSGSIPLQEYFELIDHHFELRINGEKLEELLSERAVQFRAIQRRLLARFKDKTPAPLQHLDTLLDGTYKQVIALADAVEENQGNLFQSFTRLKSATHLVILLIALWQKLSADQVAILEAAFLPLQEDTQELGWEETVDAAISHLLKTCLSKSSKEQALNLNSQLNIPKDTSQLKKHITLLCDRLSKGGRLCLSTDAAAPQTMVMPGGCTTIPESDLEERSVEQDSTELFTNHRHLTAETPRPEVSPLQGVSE
# Variants of: B1
# Details: with pthb1_human BBS9, Q3SYG4
row,effect of a mutation on the interaction,Variant
1,with no effect,Y498E
2,disrupting interaction strength,Y498H
3,disrupting interaction strength,P479L
4,with no effect,P479K
5,disrupting interaction strength,F469E
6,disrupting interaction strength,F469L
7,disrupting interaction strength,F469K
8,with no effect,I503K
9,with no effect,I503A
10,with no effect,Q516K
11,with no effect,Q516A
12,with no effect,L489A
13,with no effect,L489K
14,with no effect,L489E
15,with no effect,A504K
16,with no effect,N500A
17,with no effect,N500K
18,with no effect,L519K
19,with no effect,L519E
20,disrupting interaction strength,F501E
21,with no effect,R480A
22,with no effect,R480K

row,effect of a mutation on the interaction,Variant
1,with no effect,R480E
2,with no effect,L514A
3,disrupting interaction strength,L514E
4,disrupting interaction strength,G515C
5,with no effect,G515K
6,with no effect,G515A
7,disrupting interaction strength,G515R
8,with no effect,G515E
9,disrupting interaction strength,S488R
10,with no effect,S488K
11,with no effect,I496A
12,disrupting interaction strength,S474A
13,with no effect,S493E
14,with no effect,S493K
15,with no effect,D490E
16,with no effect,V512A
17,with no effect,V512E
18,with no effect,P491A
19,with no effect,P491E
20,with no effect,F472K
21,with no effect,P521E
22,with no effect,P521A

row,effect of a mutation on the interaction,Variant
1,with no effect,P521K
2,with no effect,E522K
3,with no effect,P495A
4,with no effect,H470E
5,with no effect,H470K
6,with no effect,V510K
7,with no effect,V510E
8,with no effect,V471E
9,disrupting interaction strength,S482K
10,disrupting interaction strength,S482P
11,with no effect,V511E
12,with no effect,V511A
13,with no effect,V511K
14,with no effect,N517K
15,with no effect,Q477K
16,with no effect,Q477E
17,with no effect,E505K
18,disrupting interaction strength,F518K
19,with no effect,F518A
20,disrupting interaction strength,F518L
21,disrupting interaction strength,F518E
22,disrupting interaction strength,W513K

row,effect of a mutation on the interaction,Variant
1,disrupting interaction strength,A485S
2,with no effect,A492K
3,disrupting interaction strength,S497A
4,with no effect,S497K
5,with no effect,L486A
6,with no effect,L486K
7,with no effect,T502K
8,with no effect,T502A
9,with no effect,A507E
10,with no effect,Q508K
11,with no effect,R476A
12,disrupting interaction strength,T487M
13,with no effect,T487A
14,disrupting interaction strength,L478A
15,disrupting interaction strength,L478K
16,disrupting interaction strength,L478P
17,disrupting interaction strength,L478E
18,with no effect,R509A
19,with no effect,R509K

# More lines, now with the values behind:
row,Variant,effect of a mutation on the interaction
1,Y484E,disrupting interaction strength
2,Y484A,disrupting interaction strength
3,Y484K,disrupting interaction strength
4,Y498A,with no effect
5,Y498K,with no effect
6,P479E,disrupting interaction strength
7,P479A,with no effect
8,E473K,with no effect
9,E473A,with no effect
10,R506K,with no effect
11,R506A,with no effect
12,R506E,with no effect
13,V499E,with no effect
14,V499K,with no effect
15,V499A,with no effect
16,F469A,with no effect
17,I503E,with no effect
18,Q516E,with no effect
19,A504E,with no effect
20,T475E,with no effect
21,T475K,with no effect

row,Variant,effect of a mutation on the interaction
1,T475A,with no effect
2,N500E,with no effect
3,L519A,with no effect
4,F501K,with no effect
5,F501A,with no effect
6,L514K,disrupting interaction strength
7,S488E,with no effect
8,S488A,with no effect
9,I496E,with no effect
10,I496K,with no effect
11,S474E,with no effect
12,S474K,disrupting interaction strength
13,S493A,with no effect
14,D490K,with no effect
15,D490A,with no effect
16,M483I,disrupting interaction strength
17,M483E,disrupting interaction strength
18,M483A,with no effect
19,M483K,disrupting interaction strength
20,V512K,with no effect
21,P491K,with no effect

row,Variant,effect of a mutation on the interaction
1,F472E,with no effect
2,F472A,with no effect
3,E522A,with no effect
4,P495K,with no effect
5,P495E,with no effect
6,H470A,with no effect
7,V510A,with no effect
8,V471K,with no effect
9,V471A,disrupting interaction strength
10,F481E,disrupting interaction strength
11,F481K,disrupting interaction strength
12,F481A,disrupting interaction strength
13,S482A,with no effect
14,S482E,disrupting interaction strength
15,N517A,with no effect
16,N517E,with no effect
17,N517L,disrupting interaction strength
18,Q477A,with no effect
19,E505A,with no effect
20,E494A,with no effect
21,E494K,with no effect

row,Variant,effect of a mutation on the interaction
1,L520E,with no effect
2,L520K,with no effect
3,L520A,with no effect
4,W513A,disrupting interaction strength
5,A485E,with no effect
6,A485K,with no effect
7,A492E,with no effect
8,S497E,with no effect
9,L486E,with no effect
10,T502E,with no effect
11,A507K,with no effect
12,Q508A,disrupting interaction strength
13,Q508E,with no effect
14,R476E,with no effect
15,R476K,with no effect
16,T487K,with no effect
17,T487E,with no effect
18,R509E,with no effect
